Key:
Test in all cases: PEPSCAN ELISA, peptide on card, alanine scan
peptide TYSSPEDAIHELFP = target: T1, peptide TYSSPEDAIHELFP
T1 construct: Alanine-scan peptide on a PEPSCAN card; also called replaced amino acid G
T1 peptide: TYSSPEDAIHELFP

peptide TYSSPEDGAHELFP = target: T2, peptide TYSSPEDGAHELFP
T2 construct: Alanine-scan peptide on a PEPSCAN card; also called replaced amino acid I
T2 peptide: TYSSPEDGAHELFP

peptide TYSSPEDGIHELAP = target: T3, peptide TYSSPEDGIHELAP
T3 construct: Alanine-scan peptide on a PEPSCAN card; also called replaced amino acid F
T3 peptide: TYSSPEDGIHELAP

peptide TYSSPEDGIHEAFP = target: T4, peptide TYSSPEDGIHEAFP
T4 construct: Alanine-scan peptide on a PEPSCAN card; also called replaced amino acid L
T4 peptide: TYSSPEDGIHEAFP

Row | Binder | Antibody binding (arbitrary optical density units) (peptide TYSSPEDAIHELFP) | Antibody binding (arbitrary optical density units) (peptide TYSSPEDGAHELFP) | Antibody binding (arbitrary optical density units) (peptide TYSSPEDGIHELAP) | Antibody binding (arbitrary optical density units) (peptide TYSSPEDGIHEAFP)
1 | antibody 17G8.72 (antibody, V domains shown) VH: DVQLQESGPDLVKPSQSLSLTCTVTGYSIASGYSWHWIRQFPGNKLEWMGYIHFSGSANYNPSLKSRISITRDTSKNQFFLQLNSVTTEDTATYYCASEARGYFDYWGQGTTLTVSS VL: DVLMTQTPLSLPVSLGDQASISCRSSQSIVRSNGNTYLTWYLQKPGQSPKLLIYKVSNRFSGVPDRFSGSGSGTDFTLKISRVEAEDLGVYFCFQGSHVPPTFGSGTKLEIKR | 89 arbitrary optical density units | 66 arbitrary optical density units | 106 arbitrary optical density units | 
2 | antibody 27A12.70 (antibody, V domains shown) VH: DVQLQESGPDLVKPSQSLSLTCTVTGYSITSGYSWHWIRQFPGNKLEWMGYIHYSGIANYNPSLKSRISITRDTSKNHFFLQLNSVTTEDTATYYCATEKTGFFDYWGQGTTLTVSS VL: DVVMTQTPLSLPVSLGDQASISCRSSQSLVHSNGNTYLHWYLQKPGQSPKLLIYKVSNRFSGVPDRFSGSGSGTDFTLKISRVEAEDLGVYFCSQSAHVPPTFGGGTKLEIKR | 122 arbitrary optical density units | 91 arbitrary optical density units | 249 arbitrary optical density units | 
3 | antibody 29E7.35 (antibody, V domains shown) VH: AVQLQESGPDLVKPSHSLSLTCTVTGYSITSGYSWHWIRQFPGNKLEWMGYIHYSGSANYNPSLKSRFSITRDTSKNQFFLQLNSVTTEDTATYYCATEKTGFFDYWGQGTTLTVSS VL: DVVMTQTPLSLPVSLGDQASISCRSSQSLVHSNGNTYLHWYLQKPGQSPKLLIYKVSNRFSGVPDRFSGSGSGTDFTLKISRVEAEDLGVYFCSQSAHVPPTFGGGTKLEIKR | 81 arbitrary optical density units | 74 arbitrary optical density units | 124 arbitrary optical density units | 194 arbitrary optical density units
